Measurements taken from paper PMC10397247.
Each block holds one binder with its values, some of them ahead of it.

What was measured:
Test in all cases: two-hybrid library CCmax;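 also: natural log of median RNA to DNA barcode read ratio; higher means stronger binding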
[1] = target: T1, 4H1639-AA
T1 chain: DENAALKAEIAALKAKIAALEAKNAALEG

[2] = target: T2, 4H2504-AA; conditions: mean of both orientations
T2 chain: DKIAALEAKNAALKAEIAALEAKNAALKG

[3] = target: T3, 4H1738-AA; conditions: mean of both orientations
T3 chain: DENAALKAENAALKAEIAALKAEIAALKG

[4] = target: T4, 4H3340-AA; conditions: mean of both orientations
T4 chain: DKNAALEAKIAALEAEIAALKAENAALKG

[5] = target: T5, 4H2592-AA; conditions: mean of both orientations
T5 chain: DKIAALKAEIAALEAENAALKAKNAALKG

[6] = target: T6, 4H3001-AA; conditions: mean of both orientations
T6 chain: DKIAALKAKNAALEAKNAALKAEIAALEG

[7] = target: T7, 4H3381-AA; conditions: mean of both orientations
T7 chain: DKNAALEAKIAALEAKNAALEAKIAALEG

[8] = target: T8, 4H963-AA; conditions: mean of both orientations
T8 chain: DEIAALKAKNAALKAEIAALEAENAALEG

[9] = target: T9, 4H347-AA; conditions: mean of both orientations
T9 chain: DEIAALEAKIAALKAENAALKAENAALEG

[10] = target: T10, 4H249-AA; conditions: mean of both orientations
T10 chain: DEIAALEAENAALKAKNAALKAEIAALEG

[11] = target: T11, 4H3493-AA; conditions: mean of both orientations
T11 chain: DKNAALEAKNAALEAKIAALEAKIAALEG

[12] = target: T12, 4H688-AA
T12 chain: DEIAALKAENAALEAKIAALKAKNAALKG

[13] = target: T13, 4H2611-AA; conditions: mean of both orientations
T13 chain: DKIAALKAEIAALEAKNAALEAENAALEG

[14] = target: T14, 4H406-AA; conditions: mean of both orientations
T14 chain: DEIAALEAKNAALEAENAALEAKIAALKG

[15] = target: T15, 4H2774-AA; conditions: mean of both orientations
T15 chain: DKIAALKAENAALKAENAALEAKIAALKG

[16] = target: T16, 4H376-AA; conditions: mean of both orientations
T16 chain: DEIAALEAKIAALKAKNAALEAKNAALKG

[17] = target: T17, 4H2219-AA; conditions: mean of both orientations
T17 chain: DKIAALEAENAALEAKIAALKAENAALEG

[18] = target: T18, 4H2949-AA; conditions: mean of both orientations
T18 chain: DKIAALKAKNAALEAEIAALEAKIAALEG

[19] = target: T19, 4H717-AA; conditions: mean of both orientations
T19 chain: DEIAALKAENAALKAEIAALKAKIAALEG

[20] = target: T20, 4H3112-AA; conditions: mean of both orientations
T20 chain: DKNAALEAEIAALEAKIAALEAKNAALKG

[21] = target: T21, 4H2190-AA; conditions: mean of both orientations
T21 chain: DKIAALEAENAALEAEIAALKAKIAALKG

[22] = target: T22, 4H2277-AA; conditions: mean of both orientations
T22 chain: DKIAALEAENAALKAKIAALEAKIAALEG

[23] = target: T23, 4H342-AA; conditions: mean of both orientations
T23 chain: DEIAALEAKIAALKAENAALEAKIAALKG

[24] = target: T24, 4H1153-AA; conditions: mean of both orientations
T24 chain: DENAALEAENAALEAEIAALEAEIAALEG

[25] = target: T25, 4H3606-AA; conditions: mean of both orientations
T25 chain: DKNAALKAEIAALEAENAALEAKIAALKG

[26] = target: T26, 4H906-AA; conditions: mean of both orientations
T26 chain: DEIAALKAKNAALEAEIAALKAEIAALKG

[27] = target: T27, 4H2505-AA; conditions: mean of both orientations
T27 chain: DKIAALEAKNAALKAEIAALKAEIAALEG

[28] = target: T28, 4H3427-AA; conditions: mean of both orientations
T28 chain: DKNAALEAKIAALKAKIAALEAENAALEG

[29] = target: T29, 4H1636-AA; conditions: mean of both orientations
T29 chain: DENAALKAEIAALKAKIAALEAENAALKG

[30] = target: T30, 4H2837-AA; conditions: mean of both orientations
T30 chain: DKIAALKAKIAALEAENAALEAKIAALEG

[31] = target: T31, 4H1135-AA
T31 chain: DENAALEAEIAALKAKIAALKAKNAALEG

[32] = target: T32, 4H1352-AA; conditions: mean of both orientations
T32 chain: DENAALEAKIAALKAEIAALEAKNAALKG

[33] = target: T33, 4H678-AA; conditions: mean of both orientations
T33 chain: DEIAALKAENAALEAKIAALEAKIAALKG

[34] = target: T34, 4H881-AA; conditions: mean of both orientations
T34 chain: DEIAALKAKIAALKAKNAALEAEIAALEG

[35] = target: T35, 4H2642-AA; conditions: mean of both orientations
T35 chain: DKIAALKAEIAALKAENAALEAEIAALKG

[36] = target: T36, 4H2354-AA; conditions: mean of both orientations
T36 chain: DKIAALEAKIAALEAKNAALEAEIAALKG

[37] = target: T37, 4H2151-AA; conditions: mean of both orientations
T37 chain: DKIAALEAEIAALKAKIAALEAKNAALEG

[38] = target: T38, 4H1867-AA; conditions: mean of both orientations
T38 chain: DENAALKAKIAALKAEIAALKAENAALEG

[39] = target: T39, 4H2617-AA; conditions: mean of both orientations
T39 chain: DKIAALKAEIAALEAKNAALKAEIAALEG

[40] = target: T40, 4H2165-AA; conditions: mean of both orientations
T40 chain: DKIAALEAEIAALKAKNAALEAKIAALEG

[41] = target: T41, 4H454-AA; conditions: mean of both orientations
T41 chain: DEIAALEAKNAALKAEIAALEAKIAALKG

[42] = target: T42, 4H2883-AA; conditions: mean of both orientations
T42 chain: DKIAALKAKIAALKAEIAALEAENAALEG

[43] = target: T43, 4H317-AA; conditions: mean of both orientations
T43 chain: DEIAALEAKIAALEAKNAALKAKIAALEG

[44] = target: T44, 4H3921-AA; conditions: mean of both orientations
T44 chain: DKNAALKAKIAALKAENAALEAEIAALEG

[45] = target: T45, 4H429-AA; conditions: mean of both orientations
T45 chain: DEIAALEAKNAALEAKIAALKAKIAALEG

[46] = target: T46, 4H566-AA; conditions: mean of both orientations
T46 chain: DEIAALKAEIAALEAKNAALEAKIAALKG

[47] = target: T47, 4H2575-AA; conditions: mean of both orientations
T47 chain: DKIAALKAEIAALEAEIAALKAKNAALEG

[48] = target: T48, 4H2466-AA; conditions: mean of both orientations
T48 chain: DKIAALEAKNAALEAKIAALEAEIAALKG

[49] = target: T49, 4H1401-AA; conditions: mean of both orientations
T49 chain: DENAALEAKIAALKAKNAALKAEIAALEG

[50] = target: T50, 4H2944-AA; conditions: mean of both orientations
T50 chain: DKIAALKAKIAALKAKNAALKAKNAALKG

[51] = target: T51, 4H3627-AA; conditions: mean of both orientations
T51 chain: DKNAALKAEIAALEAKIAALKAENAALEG

[52] = target: T52, 4H1552-AA; conditions: mean of both orientations
T52 chain: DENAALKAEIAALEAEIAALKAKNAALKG

[53] = target: T53, 4H605-AA; conditions: mean of both orientations
T53 chain: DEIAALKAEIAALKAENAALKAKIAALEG

[54] = target: T54, 4H2729-AA; conditions: mean of both orientations
T54 chain: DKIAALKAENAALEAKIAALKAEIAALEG

[55] = target: T55, 4H234-AA; conditions: mean of both orientations
T55 chain: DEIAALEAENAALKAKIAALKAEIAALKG

[56] = target: T56, 4H48-AA; conditions: mean of both orientations
T56 chain: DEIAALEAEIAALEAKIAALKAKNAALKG

[57] = target: T57, 4H3343-AA; conditions: mean of both orientations
T57 chain: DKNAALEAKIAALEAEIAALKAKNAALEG

[58] = target: T58, 4H2393-AA; conditions: mean of both orientations
T58 chain: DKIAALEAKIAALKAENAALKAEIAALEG

[59] = target: T59, 4H335-AA; conditions: mean of both orientations
T59 chain: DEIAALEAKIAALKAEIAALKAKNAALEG

[60] = target: T60, 4H3655-AA; conditions: mean of both orientations
T60 chain: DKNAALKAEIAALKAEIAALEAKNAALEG

[61] = target: T61, 4H1324-AA; conditions: mean of both orientations
T61 chain: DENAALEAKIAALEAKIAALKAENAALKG

[62] = target: T62, 4H2078-AA; conditions: mean of both orientations
T62 chain: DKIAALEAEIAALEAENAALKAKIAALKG

[63] = target: T63, 4H993-AA; conditions: mean of both orientations
T63 chain: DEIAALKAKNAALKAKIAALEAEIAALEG

[64] = target: T64, 4H122-AA; conditions: mean of both orientations
T64 chain: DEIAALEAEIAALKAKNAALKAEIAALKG

[65] = target: T65, 4H780-AA; conditions: mean of both orientations
T65 chain: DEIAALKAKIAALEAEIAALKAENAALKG

[66] = target: T66, 4H3844-AA; conditions: mean of both orientations
T66 chain: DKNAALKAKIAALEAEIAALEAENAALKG

[67] = target: T67, 4H2754-AA; conditions: mean of both orientations
T67 chain: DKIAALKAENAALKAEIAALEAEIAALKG

[68] = target: T68, 4H794-AA; conditions: mean of both orientations
T68 chain: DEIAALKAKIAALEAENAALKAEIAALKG

interaction score [1]: 1.24 | interaction score [2]: -1.77 | interaction score [3]: -1.64 | interaction score [4]: -1.63 | interaction score [5]: -1.85 | interaction score [6]: -2.12 | interaction score [7]: -1.7 | interaction score [8]: -2.16 | interaction score [9]: -1.41 | interaction score [10]: -1.52 | interaction score [11]: -1.73 | interaction score [12]: -1.18 | interaction score [13]: -1.52 | interaction score [14]: -1.63 | interaction score [15]: -1.35 | interaction score [16]: -1.37 | interaction score [17]: -1.88
B1: 4H1639-AA (peptide)
chain: DENAALKAEIAALKAKIAALEAKNAALEG

interaction score [18]: -1.21 | interaction score [19]: -1.4 | interaction score [20]: 1.57 | interaction score [21]: -1.27 | interaction score [22]: -1.81 | interaction score [23]: -1.17 | interaction score [24]: -0.461 | interaction score [25]: 0.227 | interaction score [26]: -1.37 | interaction score [27]: 1.53 | interaction score [28]: -1.05 | interaction score [29]: -0.92 | interaction score [30]: -0.865 | interaction score [31]: -0.919 | interaction score [32]: 0.703 | interaction score [33]: -0.965 | interaction score [34]: -1.61 | interaction score [35]: -1.3 | interaction score [36]: -1.64 | interaction score [37]: -0.817 | interaction score [38]: 0.0539 | interaction score [39]: -0.407 | interaction score [40]: -1.42 | interaction score [41]: -0.222 | interaction score [42]: 1.22 | interaction score [43]: -0.38 | interaction score [44]: -0.897 | interaction score [45]: -1.27 | interaction score [46]: -0.252 | interaction score [47]: 0.484 | interaction score [48]: -1.49 | interaction score [49]: -1.46 | interaction score [50]: -1.57 | interaction score [51]: 0.0922 | interaction score [52]: 0.834 | interaction score [53]: -1.37 | interaction score [54]: -0.655 | interaction score [55]: -1.27 | interaction score [56]: 0.894 | interaction score [57]: -0.943 | interaction score [58]: -1.45 | interaction score [59]: -0.173 | interaction score [60]: 1.88 | interaction score [61]: -1.33 | interaction score [62]: -1.19 | interaction score [63]: 0.00688 | interaction score [64]: -1.24 | interaction score [65]: -1.44 | interaction score [66]: 0.92 | interaction score [67]: -0.686 | interaction score [68]: -1.61
B2: 4H1135-AA (peptide)
chain: DENAALEAEIAALKAKIAALKAKNAALEG
